Assay results taken from paper PMC11808092.

How the values were obtained:
human dUTPase (human) [1] = molecular target: human dUTPase (human)
human dUTPase (human) [2] = experiment: steady state enzyme inhibition assay; apparent; 50 nM hDUT preincubated 5 min with varying Stl variant, 30 µM dUTP, 25 °C, 1 mM HEPES, 150 mM KCl, 5 mM MgCl2, 40 µM phenol red, pH 7.5; quadratic binding equation
[3] = molecular target: biotinylated Stl^NT (residues 1-159) with C-terminal Avi-tag (Staphylococcus aureus); experiment: BLI; biotinylated Stl construct on streptavidin SAX biosensors, hDUT in solution; Octet K2, 30 °C, 50 mM HEPES, 300 mM NaCl, 5 mM MgCl2, pH 7.5; at least five dilutions; 1:1 binding model; substrate-free
human dUTPase (human) [4] = experiment: crystal structure; Stl^NT and hDUT mixed in 1:1 monomer molar ratio, ca. 20 mg/ml; crystals at 20 °C from 1.5 M ammonium sulfate, 0.1 M sodium acetate pH 5; 3.2 Å

Substance | Residual activity of 50 nM hDUT at 300 nM Stl concentration (human dUTPase (human) [1]) | further results
Stl-L192A, F196A (natural protein) | 100% | 
Stl^NT (amino terminal domain of Stl, residues 1-159) (domain or fragment) | 50% | Ki (human dUTPase (human) [2]): 31 nM
Stl-S114E (natural protein) | 100% | 
Stl-Y106R (natural protein) | 89% | 
Stl protein, wild type, full-length (natural protein) | 30% | 
Stl-E189A (natural protein) | 77% | 
Stl-I181A, I184A (natural protein) | 70% | Ki (human dUTPase (human) [2]): 2.3 nM
Stl-Y106K (natural protein) | 83% | 
Stl-Y116R (natural protein) | 69% | 
Stl-derived peptide 95-…-117 | 70% | Ki (human dUTPase (human) [2]): 13 nM
Stl-V55S (natural protein) | 75% | 
human dUTPase (enzyme) |  | Kd [3]: 0.177 nM; koff [3]: 0.000106 s⁻¹; kon [3]: 600000 M⁻¹ s⁻¹; stoichiometry N (human dUTPase (human) [4]): 3
Stl-S114D (natural protein) | 100% | 
